Paper PMC9289625

Tested on: His:paALKBH5-like (Gypsy_Pa_2799 ORF2) (Phalaenopsis aphrodite)
Experiment: EMSA
Conditions: EMSA: 10 mM Tris-HCl pH 8.0, 100 mM NaCl, 50% glycerol, 1 U RiboLock, 30 min at 4 C; Northwestern: 10 mM Tris-HCl pH 7.5, 1 mM EDTA, 0.1 M NaCl, 0.05% Triton …

## AMV RNA 3 5'UTR transcript
  Kd: 0.21 µM
